Data as given in the nanobody polyreactivity screen of Harvey et al. (2022).

Test: yeast display, Sf9 membrane polyspecificity reagent, FACS + sequencing; frameworks hold sequencing errors
Method in brief: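 Sorting gates, low and high (top ~1%), were placed on anti-HA fluorescence to track expression and on streptavidin fluorescence to track reagent binding. A clone's polyreactivity label is taken from the gate it came out of. The reagent was 10% biotinylated, detergent-solubilized Sf9 membrane, applied for 1 hour at 4 °C to galactose-induced yeast display cells.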
With “QVQLVESGGGLVQAGGSLRLSCAASGIIFPNYAMGWYRQAPGKERELFAAITWRGGGTYYADSVKGRFTISRDNAKNTVYLQMNSLKPEDTAVYYCAAQKAYPRRYYGYKWEYYYWGQGSQVTVSS” the “polyreactivity (PSR sort gate)” value was “high polyreactivity”. For “QVQLVESGGGLVQAGGSLRLSCAASGIIFPNYAMGWYRQAPGKERELVAAITTSGTSTYYADSVKGRFTISRDNAKNTVYLQMNSLKPEDTAVYYCAARPTGHWGGRYYYWGQGTQVTVSS”, the “polyreactivity (PSR sort gate)” value was “high polyreactivity”. For “QVQLVESGGGLVQAGGSLRLSCAASGIIFPRYAMGWYRQAPGKERELVAAITIGGRTNYADSVKGRFTISRDNAKNTVYLQMNSLKPEDTAVYYCAAQTYVPYYEYDYWGQGTQVTVSS”, the “polyreactivity (PSR sort gate)” value was “low polyreactivity”. With “QVQLVESGGGLVQAGGSLRLSCAASGIIFPYNAMGWYTQAPGKERELVAAITGGGSTYYADSVKGRFTISRDNAKNTVYLQMNSLKPEDTAVYYCAADRSGPGYDYWGQGTQVTVSS” the “polyreactivity (PSR sort gate)” value was “low polyreactivity”. With “QVQLVESGGGLVQAGGSLRLSCAASGIIFPYNVMGWYRQAPGKERELVAAITRGAASTYYADSVKGRFTISRDNAKNTVYLQMNSLKPEDTAVYYCATDPVSTRGSDYWGQGTQVTVSS” the “polyreactivity (PSR sort gate)” value was “high polyreactivity”. For “QVQLVESGGGLVQAGGSLRLSCAASGIIFQGYVMGWYRQAPGKERELVAVISRTGGSTYYADSVKGRFTISRDNAKNTVYLQMNSLKPEDTAVYYSSAGTPRLRYLQGHRMNYWGKGTQVTVSS”, the “polyreactivity (PSR sort gate)” value was “high polyreactivity”. For “QVQLVESGGGLVQAGGSLRLSCAASGIIFQRNDMGWYRQAPGKERELVANIRDGGITYADSVKGRFTISRDNAKNTVYLQMNSLKPEDTAVYYCARDDTSPGFGDQSSNAAYYYWGQGTQVTVSS”, the “polyreactivity (PSR sort gate)” value was “low polyreactivity”. With “QVQLVESGGGLVQAGGSLRLSCAASGIIFRAYAMGWYRQAPGKERELVAAITSRGGSTYYADSVKGRFTISRDNAKNTVYLQMNSLKPEDTAVYYCAADFTIPYWDAKFDYWGQGTQVTVSS” the “polyreactivity (PSR sort gate)” value was “low polyreactivity”. With “QVQLVESGGGLVQAGGSLRLSCAASGIIFRFYAMGWSRQAPGKERELVATISKRGGTTYYADSVKGRFTISRDYAMNTVDLQMNSLKPEDSAVYYCAVRLYLEMDYWGQGTQVTVSS” the “polyreactivity (PSR sort gate)” value was “high polyreactivity”. For “QVQLVESGGGLVQAGGSLRLSCAASGIIFRFYAMGWYRQAPGKERELVAVITSRSDSTYYADSVKGRFTISRDNAKNTVYLQMNSLKPEDTAVYYCNARYPWYYRYSTYDYWGQGTQVTVSS”, the “polyreactivity (PSR sort gate)” value was “high polyreactivity”. In the case of “QVQLVESGGGLVQAGGSLRLSCAASGIIFRFYARGWYRQAPGKERELVAAISSSGTRTYYADSVKGRFTISRDNAKNTVYLQMNSLKPEETAVYYCNAAYHYYDYDYWGQGTQVTVSS”, the “polyreactivity (PSR sort gate)” value is reported as “high polyreactivity”. With “QVQLVESGGGLVQAGGSLRLSCAASGIIFRGYAMGWYRQAPGKERELVAGITSGGRTYYADSVKGRFTISRDNAKNTVYLQMNSLKPEDTAVYYCNADAYGDDWKIYDYWGQGTQVTVSS” the “polyreactivity (PSR sort gate)” value was “low polyreactivity”. In the case of “QVQLVESGGGLVQAGGSLRLSCAASGIIFRGYDMGWYRQAPGKERELVAVITDDGSTYYADSVKGRFTISRDNAKNTVYLQMNSLKPEDTAVYYCNADYLLGHWIWYDYWGQGTQVTVSS”, the “polyreactivity (PSR sort gate)” value is reported as “low polyreactivity”. With “QVQLVESGGGLVQAGGSLRLSCAASGIIFRGYVMGWYRQAPGKERELVAAISTSGGRTSYADSVKGRFTISRDYAKNTVYLQMNSLKPEDTAVYYCAARPLYSYSQWGYGYWGQVTQVTVSS” the “polyreactivity (PSR sort gate)” value was “high polyreactivity”. In the case of “QVQLVESGGGLVQAGGSLRLSCAASGIIFRKYAMGWYRQAPGKERELVAAISFSGGTTYYADSVKGRFTISRDNAKNTVYLQMNSLKPEDTAVYYCAADPVAYVIDDYYWGQGTQVTVSS”, the “polyreactivity (PSR sort gate)” value is reported as “high polyreactivity”. For “QVQLVESGGGLVQAGGSLRLSCAASGIIFRNYAMGWYRQAPGKERELVAAISRNGGSTYYADSVKGRFTISRDNAKNTVYLQMNSLKPEDTAVYYCAARASYPNWTYYYWGKGTQVTVSS”, the “polyreactivity (PSR sort gate)” value was “high polyreactivity”. For “QVQLVESGGGLVQAGGSLRLSCAASGIIFRPYAMGWYRQAPGTEMELVAAITGSGVSTYYADSVKGRFTISRDNAKNTVYLQMNSLKPEDTAVYYCAKRYNRGYHRYDYWGQGTQVTVSS”, the “polyreactivity (PSR sort gate)” value was “low polyreactivity”. For “QVQLVESGGGLVQAGGSLRLSCAASGIIFRRNAMGWYRQAPGKERELVATISRSGGSTYYADSVKGRFTISRYNAKNTVYLQMNSLKPEDTAVYYCNTLYPRPYAINPRDYWGQGTQVTVSS”, the “polyreactivity (PSR sort gate)” value was “high polyreactivity”. In the case of “QVQLVESGGGLVQAGGSLRLSCAASGIIFRRYAMGWYRQAPGKERELVAAIRTSGGNTYYADSVKRRFTISRDNAKNTVYLQMNSLKPEDTAVYYCAARKYHYRYGYWGQGTQVTVSS”, the “polyreactivity (PSR sort gate)” value is reported as “high polyreactivity”. In the case of “QVQLVESGGGLVQAGGSLRLSCAASGIIFRRYAMGWYRQAPGKERELVAAISSGGRTYYADSVKGRFTISRDNAKNTVYLQMNSLKPEDTAVYYCNARAFARYWWYEYWGQGTQVTVSS”, the “polyreactivity (PSR sort gate)” value is reported as “high polyreactivity”. In the case of “QVQLVESGGGLVQAGGSLRLSCAASGIIFRRYAMGWYRQEPGKARELVAAITSGGDTNYADSVKGRFTLSRDNAKNTVYLQMNSLKPEDTAVYYCNAGLRGVRRYGFDYWGQGTQVTVSS”, the “polyreactivity (PSR sort gate)” value is reported as “high polyreactivity”. In the case of “QVQLVESGGGLVQAGGSLRLSCAASGIIFRSNAMGWYRQAAGNERELVAAISQRGGSTYYADSVKGRFTISRDNAKNTVYLQMNSLKPEDTAVYYCNALQRRYGGGGNDYWGQGTQVTVSS”, the “polyreactivity (PSR sort gate)” value is reported as “high polyreactivity”. In the case of “QVQLVESGGGLVQAGGSLRLSCAASGIIFRSNAMGWYRQAPGKERELVAAISRTGRTYYADSVKGRFTISRDNAKNTVNLQMNSLKPEDTAVYYCAVGIVQRDSRYYYWGQGTQVTVSS”, the “polyreactivity (PSR sort gate)” value is reported as “high polyreactivity”. In the case of “QVQLVESGGGLVQAGGSLRLSCAASGIIFRSNAMGWYRQAPGKERELVAAISWSGSSTYYADSVKGRFTISRDNAKKTVYLQMNSLKPEDTAVYYCAAYDFYGIYWGQGTQVTVSS”, the “polyreactivity (PSR sort gate)” value is reported as “low polyreactivity”. For “QVQLVESGGGLVQAGGSLRLSCAASGIIFRTYAMGWYRQAPGKEREFVAAISWSGGRTYYADSVKGRFTISRDNAKNTVYLQMNSLKPEDTAVYYCAALRSSQSKGDYWGQGTQVTVSS”, the “polyreactivity (PSR sort gate)” value was “high polyreactivity”. For “QVQLVESGGGLVQAGGSLRLSCAASGIIFRVNAMGWYRQAPGKERELVAAISSGGRTYYADSVKGRFTISGDNAKNTVSLQMNSLKPEDTAVYYCNAGRLRYIFKSYDYWGQGTQVSVSS”, the “polyreactivity (PSR sort gate)” value was “high polyreactivity”. In the case of “QVQLVESGGGLVQAGGSLRLSCAASGIIFRYNAMGWYRQAPGKERELVADITFSVGSTNYADSVKGRFTISRDNAKNTVYLQMNSLKPEDTAVYYCAAKFHSTYGNDDWGQGTQVTVSS”, the “polyreactivity (PSR sort gate)” value is reported as “low polyreactivity”. With “QVQLVESGGGLVQAGGSLRLSCAASGIIFRYYAMGWYRQAPGKERELVAAISGRGGSTYYADSVKGRFTISRDNAKNTVYLQMNSLKPEDTAVYYCAIYVSWPLYYYWGQGTQVTVSS” the “polyreactivity (PSR sort gate)” value was “low polyreactivity”. For “QVQLVESGGGLVQAGGSLRLSCAASGIIFRYYAMGWYRQAPGKERELVAAITVNGGRTYYADSVKGRFTISRDNAKNNVYLQMNSLKPEVTAVYYCAAYPHRYRVTPYPSVVSLDNYWGQGTQVTVSS”, the “polyreactivity (PSR sort gate)” value was “low polyreactivity”. With “QVQLVESGGGLVQAGGSLRLSCAASGIIFRYYAMGWYRQAPGKERELVATISWRGGSTYYADSVKGRFTISRDNAKNTVYLQMNSLKPEDTAVYYCAAAISYSARGGKGLGGYWGQGTQVTVSS” the “polyreactivity (PSR sort gate)” value was “high polyreactivity”. With “QVQLVESGGGLVQAGGSLRLSCAASGIIFSANAMGWYRQAPGKERELVAAISRDGSTYYADSVKGRFTISRDNAKNTVYLQMNSLKPEDTAVYYCAVDPIYYWRPGYDYWGQGTQVTVSS” the “polyreactivity (PSR sort gate)” value was “low polyreactivity”. For “QVQLVESGGGLVQAGGSLRLSCAASGIIFSAYAMGWYRQPPGKERELVAVIDSDGDGTYYADSVKGRFTISRDNAKNTVYLQMNSLKPEDTAVYYCAADYEYTRVEGWFIGFDEYGYWGQGTQVTVSS”, the “polyreactivity (PSR sort gate)” value was “low polyreactivity”. In the case of “QVQLVESGGGLVQAGGSLRLSCAASGIIFSDNAMGWYRQAPGKERELVAAIDWSGGSTYYADSVKGRFTISRDNAKNTVYLQMNSLKPEDTAVYYSAAEYRDYVPVNDTGDYWGQGTQVTVSS”, the “polyreactivity (PSR sort gate)” value is reported as “low polyreactivity”. With “QVQLVESGGGLVQAGGSLRLSCAASGIIFSDNAMGWYRQAPGKERELVAAIDWSGGSTYYADSVKGRFTISRDNAKNTVYLQMNSMKPEDSAVYDCAAEYRDYVPVNDTGDYWGQGTQVTVSS” the “polyreactivity (PSR sort gate)” value was “low polyreactivity”. For “QVQLVESGGGLVQAGGSLRLSCAASGIIFSDYTMGWYRQAPGKERELVAAITWSGASTYYADSVKGRFTISRDNAKNTVYLQMNSLKPEDTAVYYCAAREYWYPGYVSWFDYWGQGTQVTVSS”, the “polyreactivity (PSR sort gate)” value was “high polyreactivity”. In the case of “QVQLVESGGGLVQAGGSLRLSCAASGIIFSGYAKGWSRQAPGKERELVAAISYSGASTYYADSVKGRFTISRDNAKNSVYLLMNSLKPEDTAVYFCAADRRYGRYWNGWSYYYWGQGTQVTVSS”, the “polyreactivity (PSR sort gate)” value is reported as “high polyreactivity”. With “QVQLVESGGGLVQAGGSLRLSCAASGIIFSIYAMGWYRQAPGKERELVAAISGRGGRTYYADSVKGRFTISRDNAKNTVYLQMNSLKPVDTAVYYCNAEYHDLYDYWGQGTQVTVSS” the “polyreactivity (PSR sort gate)” value was “low polyreactivity”. For “QVQLVESGGGLVQAGGSLRLSCAASGIIFSKNTMGWYRQAPGKERELVAAISRSGGTSTYYADSVKGRFTISRDNAKNTVYLQMNSLKPEDTAVYYCAAGVPRIGGYYYWGQGTQVTVSS”, the “polyreactivity (PSR sort gate)” value was “low polyreactivity”. With “QVQLVESGGGLVQAGGSLRLSCAASGIIFSQYAMGWYRQAPGKERELVAGITRSGGSTYYADSVKGRFTISRDNAKNTVYLQMNSLKPEDTAVYYCAAVQRYEYGYWGQGTQVTVSS” the “polyreactivity (PSR sort gate)” value was “high polyreactivity”. In the case of “QVQLVESGGGLVQAGGSLRLSCAASGIIFSRNVMGWYRPAPGKERELVAVISGSGGSTYYADSVKGRFTISRDNAKNTVYLQMNSLKPEDSAVYYCAASYEYLWGYDYEYWGQGTQVTVSS”, the “polyreactivity (PSR sort gate)” value is reported as “high polyreactivity”. In the case of “QVQLVESGGGLVQAGGSLRLSCAASGIIFSSNAMGWYRPAPGKERELVAAISNTGRTNYADSVKGRFTISRDNEKNTVYLQMNSLKPEDTAVYYCDARLSRRYYSYYYWGQGTQVTVSS”, the “polyreactivity (PSR sort gate)” value is reported as “high polyreactivity”. For “QVQLVESGGGLVQAGGSLRLSCAASGIIFSSYAMGWYRQAPGKERELVAAISWSGGSTYYADSVKGRFTISRDNAKNTVYLQMNSLKPEDTAVYYCAAYPVWYYEYDYWGQGTQVTVSS”, the “polyreactivity (PSR sort gate)” value was “low polyreactivity”. In the case of “QVQLVESGGGLVQAGGSLRLSCAASGIIFSTYAMGWYRQAPGKERELVAAISSGGRTYYADSVKGRFTISRDNAKNTVYLQMNSLKPEDTAVYYCAASYYRYYSGWTPYYYWGQGTQVTVSS”, the “polyreactivity (PSR sort gate)” value is reported as “high polyreactivity”.
